Numbering of substitutions follows the chain as printed. Where “and” joins values, the source holds several entries; their conditions need not be identical. Equal entries are not always repeated. Values belong to the molecule of their own block, whether it stands above or below them.
Columns and labels:
USP25 Y454E (human) = USP25 Y454E (human) (UniProt Q9UHP3); test: SEC; oligomer state of USP25 point mutants (Supplementary Figures 6 and 11, not shown); by the methods all USP25 constructs were loaded on a Superdex 16 column in 100 mM NaCl, 20 mM Tris-HCl pH 8.0, 1 mM β-mercaptoethanol and run on native PAGE
USP25 Y454F (human) = USP25 Y454F (human) (UniProt Q9UHP3); test: as above
[1] = target: USP25CD ΔIL (USP25 catalytic domain construct with the IL-loop, Cys465 to Pro537, replaced by Gly-Ser-Gly) (human); test: SEC; analytical gel filtration of all truncation constructs run in parallel under identical conditions, Superdex 16 column, 100 mM NaCl, 20 mM Tris-HCl pH 8.0, 1 mM β-mercaptoethanol; oligomer from elution time against expected molecular weight
[2] = target: USP25CD (human USP25 with the NTD and the CTD deleted) (human); test: as above
[3] = target: the molecule itself; test: as above
[4] = target: the molecule itself; test: SEC; purification of USP25NCD: preparative Superdex 200 gel filtration, anion exchange of the two peak fractions, analytical gel filtration (Superdex 16) of the dimer and tetramer fractions; 100 mM NaCl, 20 mM Tris-HCl pH 8.0, 1 mM β-mercaptoethanol
[5] = target: the molecule itself; test: SEC; oligomer state of USP25 point mutants (Supplementary Figures 6 and 11, not shown); by the methods all USP25 constructs were loaded on a Superdex 16 column in 100 mM NaCl, 20 mM Tris-HCl pH 8.0, 1 mM β-mercaptoethanol and run on native PAGE
[6] = target: the molecule itself; test: crystal structure; lysine-methylated USP25NCD tetramer fraction; space group I422, one molecule per asymmetric unit, tetramer from the crystal lattice; 3.28 Å
[7] = target: T1, USP25FL (full-length human USP25) (human), Q9UHP3; test: SEC; analytical gel filtration of all truncation constructs run in parallel under identical conditions, Superdex 16 column, 100 mM NaCl, 20 mM Tris-HCl pH 8.0, 1 mM β-mercaptoethanol; oligomer from elution time against expected molecular weight; conditions: remark: other sources report otherwise
T1 chain: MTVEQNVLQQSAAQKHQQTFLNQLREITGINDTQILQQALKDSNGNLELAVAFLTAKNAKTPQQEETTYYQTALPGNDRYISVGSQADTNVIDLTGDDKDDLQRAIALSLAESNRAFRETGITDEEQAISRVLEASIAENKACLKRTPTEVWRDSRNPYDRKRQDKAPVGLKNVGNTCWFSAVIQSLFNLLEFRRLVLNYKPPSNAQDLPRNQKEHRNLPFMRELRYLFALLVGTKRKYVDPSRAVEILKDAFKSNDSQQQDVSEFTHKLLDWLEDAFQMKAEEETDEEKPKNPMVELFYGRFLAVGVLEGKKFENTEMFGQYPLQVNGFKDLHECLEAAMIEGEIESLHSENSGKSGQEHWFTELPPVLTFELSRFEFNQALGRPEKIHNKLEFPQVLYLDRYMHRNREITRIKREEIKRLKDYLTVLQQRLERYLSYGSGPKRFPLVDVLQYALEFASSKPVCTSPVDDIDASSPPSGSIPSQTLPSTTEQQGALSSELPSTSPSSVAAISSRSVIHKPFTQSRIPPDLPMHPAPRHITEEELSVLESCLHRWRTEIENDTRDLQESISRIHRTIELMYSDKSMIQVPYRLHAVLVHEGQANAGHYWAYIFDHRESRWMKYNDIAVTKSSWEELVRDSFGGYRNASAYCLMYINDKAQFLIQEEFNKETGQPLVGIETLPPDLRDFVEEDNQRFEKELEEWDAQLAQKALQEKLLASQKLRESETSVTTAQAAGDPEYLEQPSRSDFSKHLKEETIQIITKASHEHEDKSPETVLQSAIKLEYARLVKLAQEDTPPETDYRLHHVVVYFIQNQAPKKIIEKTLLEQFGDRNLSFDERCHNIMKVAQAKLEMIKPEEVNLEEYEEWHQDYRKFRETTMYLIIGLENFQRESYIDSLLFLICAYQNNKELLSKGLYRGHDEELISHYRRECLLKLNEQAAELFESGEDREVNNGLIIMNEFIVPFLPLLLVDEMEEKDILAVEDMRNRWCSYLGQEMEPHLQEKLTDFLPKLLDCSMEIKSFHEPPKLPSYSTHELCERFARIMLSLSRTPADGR

Molecule: USP25 Y454E (from UniProt Q9UHP3 1-1055) (enzyme)
stoichiometry N (USP25 Y454E (human)): 2

B1: USP25NCD ΔIL (USP25 18-714 with the IL-loop, Cys465 to Pro537, replaced by Gly-Ser-Gly) (enzyme, human)
chain: QTFLNQLREITGINDTQILQQALKDSNGNLELAVAFLTAKNAKTPQQEETTYYQTALPGNDRYISVGSQADTNVIDLTGDDKDDLQRAIALSLAESNRAFRETGITDEEQAISRVLEASIAENKACLKRTPTEVWRDSRNPYDRKRQDKAPVGLKNVGNTCWFSAVIQSLFNLLEFRRLVLNYKPPSNAQDLPRNQKEHRNLPFMRELRYLFALLVGTKRKYVDPSRAVEILKDAFKSNDSQQQDVSEFTHKLLDWLEDAFQMKAEEETDEEKPKNPMVELFYGRFLAVGVLEGKKFENTEMFGQYPLQVNGFKDLHECLEAAMIEGEIESLHSENSGKSGQEHWFTELPPVLTFELSRFEFNQALGRPEKIHNKLEFPQVLYLDRYMHRNREITRIKREEIKRLKDYLTVLQQRLERYLSYGSGPKRFPLVDVLQYALEFASSKPVGSGRHITEEELSVLESCLHRWRTEIENDTRDLQESISRIHRTIELMYSDKSMIQVPYRLHAVLVHEGQANAGHYWAYIFDHRESRWMKYNDIAVTKSSWEELVRDSFGGYRNASAYCLMYINDKAQFLIQEEFNKETGQPLVGIETLPPDLRDFVEEDNQRFEKELEEWDAQLAQKALQE
notes: USP25, human, from Gln18 to the residue before the deletion (deletion from Cys465 to Pro537); three-amino-acid linker Gly-Ser-Gly in place of the deleted stretch; USP25, human, from the residue after the deletion to Glu714; also called ΔIL USP25NCD; USP25NCD ∆IL; not shown: Smt3, N-terminal, cleaved
stoichiometry N [3]: 2

B2: USP25NCD (human USP25, N-terminal domain and USP-like catalytic domain, Gln18 to Glu714) (enzyme, UniProt Q9UHP3 18-714, looked up)
chain: QTFLNQLREITGINDTQILQQALKDSNGNLELAVAFLTAKNAKTPQQEETTYYQTALPGNDRYISVGSQADTNVIDLTGDDKDDLQRAIALSLAESNRAFRETGITDEEQAISRVLEASIAENKACLKRTPTEVWRDSRNPYDRKRQDKAPVGLKNVGNTCWFSAVIQSLFNLLEFRRLVLNYKPPSNAQDLPRNQKEHRNLPFMRELRYLFALLVGTKRKYVDPSRAVEILKDAFKSNDSQQQDVSEFTHKLLDWLEDAFQMKAEEETDEEKPKNPMVELFYGRFLAVGVLEGKKFENTEMFGQYPLQVNGFKDLHECLEAAMIEGEIESLHSENSGKSGQEHWFTELPPVLTFELSRFEFNQALGRPEKIHNKLEFPQVLYLDRYMHRNREITRIKREEIKRLKDYLTVLQQRLERYLSYGSGPKRFPLVDVLQYALEFASSKPVCTSPVDDIDASSPPSGSIPSQTLPSTTEQQGALSSELPSTSPSSVAAISSRSVIHKPFTQSRIPPDLPMHPAPRHITEEELSVLESCLHRWRTEIENDTRDLQESISRIHRTIELMYSDKSMIQVPYRLHAVLVHEGQANAGHYWAYIFDHRESRWMKYNDIAVTKSSWEELVRDSFGGYRNASAYCLMYINDKAQFLIQEEFNKETGQPLVGIETLPPDLRDFVEEDNQRFEKELEEWDAQLAQKALQE
notes: USP25, human, residues 18-714 of the 1055-residue protein (Met1 to Arg1055); A His tag ahead of Smt3 is surmised from the Ni2+ purification; also called USP25NCD tetramer; USP25NCD dimer; not shown: Smt3, N-terminal, cleaved
stoichiometry N [4]: 2 and 4

B3: USP25NCD L271W (enzyme, human, UniProt Q9UHP3 18-714, looked up)
chain: B2 chain with L254W
notes: The methods speak of 'USP25NCD point mutants'; not shown: Smt3, N-terminal, cleaved
stoichiometry N [5]: 4

B4: USP25NCD, lysine-methylated (tetramer fraction used for crystallization) (enzyme, human, UniProt Q9UHP3 18-714, looked up)
chain: B2 chain
modifications: lysines methylated (borane-dimethylamine complex and formaldehyde)
notes: USP25, human, residues 18-714 of the 1055-residue protein; Model holds Tyr159 to Ala708; NTD (18-158) and several loops (205-214, 256-260, 346-354, 471-515, 671-677) are not seen; also called USP25NCD tetramer; lysine methylated USP25NCD; not shown: Smt3, N-terminal, cleaved
stoichiometry N [6]: 4

B5: USP25FL ΔIL (full-length USP25 with the IL-loop, Cys465 to Pro537, replaced by Gly-Ser-Gly) (enzyme, human)
chain: MTVEQNVLQQSAAQKHQQTFLNQLREITGINDTQILQQALKDSNGNLELAVAFLTAKNAKTPQQEETTYYQTALPGNDRYISVGSQADTNVIDLTGDDKDDLQRAIALSLAESNRAFRETGITDEEQAISRVLEASIAENKACLKRTPTEVWRDSRNPYDRKRQDKAPVGLKNVGNTCWFSAVIQSLFNLLEFRRLVLNYKPPSNAQDLPRNQKEHRNLPFMRELRYLFALLVGTKRKYVDPSRAVEILKDAFKSNDSQQQDVSEFTHKLLDWLEDAFQMKAEEETDEEKPKNPMVELFYGRFLAVGVLEGKKFENTEMFGQYPLQVNGFKDLHECLEAAMIEGEIESLHSENSGKSGQEHWFTELPPVLTFELSRFEFNQALGRPEKIHNKLEFPQVLYLDRYMHRNREITRIKREEIKRLKDYLTVLQQRLERYLSYGSGPKRFPLVDVLQYALEFASSKPVGSGRHITEEELSVLESCLHRWRTEIENDTRDLQESISRIHRTIELMYSDKSMIQVPYRLHAVLVHEGQANAGHYWAYIFDHRESRWMKYNDIAVTKSSWEELVRDSFGGYRNASAYCLMYINDKAQFLIQEEFNKETGQPLVGIETLPPDLRDFVEEDNQRFEKELEEWDAQLAQKALQEKLLASQKLRESETSVTTAQAAGDPEYLEQPSRSDFSKHLKEETIQIITKASHEHEDKSPETVLQSAIKLEYARLVKLAQEDTPPETDYRLHHVVVYFIQNQAPKKIIEKTLLEQFGDRNLSFDERCHNIMKVAQAKLEMIKPEEVNLEEYEEWHQDYRKFRETTMYLIIGLENFQRESYIDSLLFLICAYQNNKELLSKGLYRGHDEELISHYRRECLLKLNEQAAELFESGEDREVNNGLIIMNEFIVPFLPLLLVDEMEEKDILAVEDMRNRWCSYLGQEMEPHLQEKLTDFLPKLLDCSMEIKSFHEPPKLPSYSTHELCERFARIMLSLSRTPADGR
notes: USP25, human, from Met1 to the residue before the deletion (deletion from Cys465 to Pro537); three-amino-acid linker Gly-Ser-Gly in place of the deleted stretch; USP25, human, from the residue after the deletion to Arg1055; also called ΔIL USP25FL; not shown: Smt3, N-terminal, cleaved
stoichiometry N [3]: 2

The remaining lines, values ahead:

stoichiometry N (USP25 Y454F (human)): 4
Molecule: USP25 Y454F (from UniProt Q9UHP3 1-1055) (enzyme)

stoichiometry N [1]: 2
Molecule: USP25CD ΔIL (USP25 catalytic domain construct with the IL-loop, Cys465 to Pro537, replaced by Gly-Ser-Gly) (domain or fragment)

stoichiometry N [2]: 4
Molecule: USP25CD (human USP25 with the NTD and the CTD deleted) (domain or fragment)

stoichiometry N [7]: 4
B6: USP25FL (full-length human USP25), Q9UHP3 1-1055 (enzyme)
chain: T1 chain

— PMC6255862, “A quaternary tetramer assembly inhibits the deubiquitinating activity of USP25” (Nature Communications, 2018)
